Consider 13 molecules from patent US20150166663A1 (AstraZeneca / MedImmune, published 2015).

For experiment [1], the target named is T1, cynomolgus αVβ6 on cells (cynomolgus).
T1 construct: whole, on cells; also called macaque αVβ6; Mac AVB6
The experiment can be described thus: FACS, supernatant, HEK-293 cells transfected with cynomolgus αV and β6.
Experimental: The assays were performed as follows. […] The cells were then pelleted, the supernatant discarded, and resuspended in FACS buffer and incubated for 30 minutes at 37° C. Cells were then washed twice with FACS buffer and resuspended in a final volume of 100 μL FACS buffer per well.
HEK-293 cells were transiently transfected with cynomolgus αV and cynomolgus β6. After 48 hours, the cells were collected and resuspended in FACS buffer to reach a final concentration of approximately 50,000 cells in 100 μL.
Approximately 100,000 cells total, comprising a 50:50 mix of CFSE-labeled A375M cells and transfected 293 cells, were used in each reaction as follows. 100 μL of CFSE-labeled A375M cells and 100 μL of 293 cells were dispensed into a V-bottom plate. The cells in the plate were pelleted at 1500 rpm for 3 minutes, and then resuspended in 100 μL FACS buffer. The pelleting step was repeated, and the FACS buffer supernatant was removed. The harvested antibody-containing supernatants, or control primary antibodies were added in a volume of 50 μL and the cells were resuspended. […] The plate was incubated on ice for 45 minutes, after which 100 μL FACS buffer was added to dilute the primary antibody. The cells were then pelleted by centrifuging at 1500 rpm for 3 minutes, and the pellet was resuspended in 100 μL FACS buffer. The pelleting step was repeated, and the FACS buffer supernatant was removed. Cells were then resuspended in the appropriate secondary antibody (5 μg/ml) with 7AAD dye (10 μg/ml), and stained on ice for 7 minutes. Then 150 μL of FACS buffer was added and the cells were pelLeted at 1500 rpm for 3 minutes, after which the cells were washed in 100 μL FACS buffer, pelleted, and then resuspended in 250 μL buffer and added to FACS tubes. Samples were analyzed on a high throughput FACS machine and analyzed using Cell Quest Pro software.

Experiment [2] concerns the target T2, cynomolgus β6 on transfected HEK-293 cells (cynomolgus).
T2 chain: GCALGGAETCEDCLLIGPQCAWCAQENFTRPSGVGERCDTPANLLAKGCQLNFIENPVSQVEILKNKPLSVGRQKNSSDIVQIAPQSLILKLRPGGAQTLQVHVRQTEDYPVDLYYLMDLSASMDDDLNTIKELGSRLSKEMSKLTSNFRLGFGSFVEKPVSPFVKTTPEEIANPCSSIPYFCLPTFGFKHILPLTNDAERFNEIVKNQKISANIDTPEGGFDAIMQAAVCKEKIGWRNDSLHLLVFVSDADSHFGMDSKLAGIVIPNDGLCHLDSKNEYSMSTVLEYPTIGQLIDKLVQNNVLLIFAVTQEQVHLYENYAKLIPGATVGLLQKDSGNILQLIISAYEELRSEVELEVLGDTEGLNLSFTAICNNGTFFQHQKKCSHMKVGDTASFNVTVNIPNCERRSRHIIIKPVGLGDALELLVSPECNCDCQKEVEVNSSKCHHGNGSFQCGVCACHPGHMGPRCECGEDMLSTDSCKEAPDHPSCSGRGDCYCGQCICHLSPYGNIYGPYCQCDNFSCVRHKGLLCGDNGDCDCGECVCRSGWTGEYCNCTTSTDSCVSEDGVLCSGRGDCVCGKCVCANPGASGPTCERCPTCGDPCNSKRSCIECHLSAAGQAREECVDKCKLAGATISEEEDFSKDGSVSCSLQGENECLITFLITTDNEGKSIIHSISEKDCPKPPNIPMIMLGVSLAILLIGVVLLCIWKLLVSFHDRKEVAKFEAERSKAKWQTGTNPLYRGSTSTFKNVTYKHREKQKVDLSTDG
The experiment can be described thus: FACS, purified mAb, transiently transfected HEK-293 cells.
Experimental: (§1) Cross-reactivity of the mAbs to macaque and mouse αVβ6 was tested on the purified mAbs using FACS analysis on HEK-293 cells transiently transfected with cynomolgus or mouse αV, β6, or αVβ6. Approximately 48 hours after transfection, the cells were collected and resuspended in FACS buffer to reach a final concentration of approximately 50,000 cells in 100 μL.
(§2) Approximately 100,000 cells total, were used in each reaction as follows. 200 μL of 293 cells were dispensed into a V-bottom plate. The cells in the plate were pelleted at 1500 rpm for 3 minutes, and then resuspended in 100 μL FACS buffer. The pelleting step was repeated, and the FACS buffer supernatant was removed. The purified mAbs, or control primary antibodies were added in a volume of 50 μL and the cells were resuspended. […] The plate was incubated on ice for 45 minutes, after which 100 μL FACS buffer was added to dilute the primary antibody. The cells were then pelleted by centrifuging at 1500 rpm for 3 minutes, and the pellet was resuspended in 100 μL FACS buffer. The pelleting step was repeated, and the FACS buffer supernatant was removed. Cells were then resuspended in the appropriate secondary antibody (5 μg/ml) with 7AAD dye (10 μg/ml), and stained on ice for 7 minutes. Then 150 μL of FACS buffer was added and the cells were pelleted at 1500 rpm for 3 minutes, after which the cells were washed in 100 μL FACS buffer, pelleted, and then resuspended in 250 μL buffer and added to FACS tubes. Samples were analyzed on a high throughput FACS machine and analyzed using Cell Quest Pro software.

Experiment [3] deals with T1, cynomolgus αVβ6 on cells. Described as above.
Experimental: as §1, §2
The target in experiment [4] is T3, cynomolgus αV on transfected HEK-293 cells (cynomolgus, UniProt A0A2K5WCD3 31-1048).
T3 construct: Chain transfected alone; also called Cynomolgus alphaV
Described as above.
Experimental: as §1, §2

The target in experiment [5] is T4, human αVβ6 integrin on cells (human, UniProt P06756 31-1048; P18564 22-788).
T4 construct: whole, on cells; also called alphaVbeta6
The experiment can be described thus: FACS titration on K562 cells stably expressing human αVβ6, done as in Example 18, averaged geometric mean fluorescence.

For experiment [6], the target named is T4, human αVβ6 integrin on cells. The experiment can be described thus: FACS, 293T-αVβ6 cells, 1.25 ug/ml.
Experimental: (§3) Cells were divided between reactions in a V-bottom 96-well plate (Sarstedt), and the cells in the plate were pelleted at 1500 rpm for 3 minutes, after which the HBSS supernatant was removed. The primary antibody was added at the concentration indicated in Table 19 in a volume of 50 μL, and the cells were resuspended and thereafter incubated on ice for 60 minutes. After incubation, the cells were pelleted by centrifugation at 1500 rpm for 3 minutes, resuspended in 100 μL wash buffer, and then pelleted again. Cells were then resuspended in the appropriate secondary antibody at 2 μg/ml with 10 μg/ml 7AAD, and stained on ice for 7 minutes, after which 150 μL of wash buffer was added, and cells were pelleted at 1500 rpm for 3 minutes and then resuspended in 100 μL of HBSS with 1% BSA. Samples were read on a FACS machine with a HTS attachment and the data was analyzed using Cell Quest Pro software.
Experiment [7] has the same target. The experiment can be described thus: FACS, 293T-αVβ6 cells, 5 ug/ml.
Experimental: as §3
The target is the same in experiment [8]. The experiment can be described thus: FACS, 293T-αVβ6 cells, 20 ug/ml.
Experimental: as §3
Experiment [9] deals with T5, soluble αVβ6 (human, UniProt P06756 31-992; P18564 22-709).
T5 construct: extracellular domain; also called soluble antigen; soluble αVβ6 protein
The experiment can be described thus: competition ELISA: soluble αVβ6 (250 ng/ml) pre-incubated with the mAb, then binding to plate-coated GST-LAP, bound αVβ6 detected with mAb 2075.
Experimental: The wells were then washed three times using 300 μL/well of assay diluent. […] The wells were then washed three times using 300 μL/well of assay diluent, and incubated with goat anti-mouse IgG Fc-peroxidase at 400 ng/ml in assay diluent (50 μL/well) for one hour at room temperature. The wells were then washed three times using 300 μL/well of assay diluent, and developed using 1-step TMB (Neogen) at a total volume of 50 μL/well. After 15 minutes, the developing reaction was quenched with 50 μL/well of 1N Hydrochloric acid.

Experiment [10] addresses T4, human αVβ6 integrin on cells. The experiment can be described thus: FACS titration on K562 cells stably expressing human αVβ6, Cy5 goat anti-human detection, averaged geometric mean fluorescence.
Experimental: K562 cells expressing αVβ6 were resuspended in filtered HBS buffer containing 1 mM of MgCl₂ and 1 mM of CaCl₂ at a concentration of approximately 6 million cells/mL. The cells were kept on ice. […] The 12th well in each row contained buffer only. Titrations were done in triplicate. Additional HBS and cells were added to each well so that the final volume was 300 μL/well and each well contained approximately 120,000 cells. […] The plates were then shaken for 40 minutes at 4° C., and thereafter were spun and washed once again three times with HBS. The Geometric Mean Fluorescence (GMF) of 20,000 “events” for each mAb concentration was recorded using a FACSCalibur instrument, and the corresponding triplicate titration points were averaged to give one GMF point for each mAb concentration. A plot of the averaged GMF as a function of molecular mAb concentration with Scientist software was fit nonlinearly using the equation:

T4 sequence (P06756 31-1048, one chain of several): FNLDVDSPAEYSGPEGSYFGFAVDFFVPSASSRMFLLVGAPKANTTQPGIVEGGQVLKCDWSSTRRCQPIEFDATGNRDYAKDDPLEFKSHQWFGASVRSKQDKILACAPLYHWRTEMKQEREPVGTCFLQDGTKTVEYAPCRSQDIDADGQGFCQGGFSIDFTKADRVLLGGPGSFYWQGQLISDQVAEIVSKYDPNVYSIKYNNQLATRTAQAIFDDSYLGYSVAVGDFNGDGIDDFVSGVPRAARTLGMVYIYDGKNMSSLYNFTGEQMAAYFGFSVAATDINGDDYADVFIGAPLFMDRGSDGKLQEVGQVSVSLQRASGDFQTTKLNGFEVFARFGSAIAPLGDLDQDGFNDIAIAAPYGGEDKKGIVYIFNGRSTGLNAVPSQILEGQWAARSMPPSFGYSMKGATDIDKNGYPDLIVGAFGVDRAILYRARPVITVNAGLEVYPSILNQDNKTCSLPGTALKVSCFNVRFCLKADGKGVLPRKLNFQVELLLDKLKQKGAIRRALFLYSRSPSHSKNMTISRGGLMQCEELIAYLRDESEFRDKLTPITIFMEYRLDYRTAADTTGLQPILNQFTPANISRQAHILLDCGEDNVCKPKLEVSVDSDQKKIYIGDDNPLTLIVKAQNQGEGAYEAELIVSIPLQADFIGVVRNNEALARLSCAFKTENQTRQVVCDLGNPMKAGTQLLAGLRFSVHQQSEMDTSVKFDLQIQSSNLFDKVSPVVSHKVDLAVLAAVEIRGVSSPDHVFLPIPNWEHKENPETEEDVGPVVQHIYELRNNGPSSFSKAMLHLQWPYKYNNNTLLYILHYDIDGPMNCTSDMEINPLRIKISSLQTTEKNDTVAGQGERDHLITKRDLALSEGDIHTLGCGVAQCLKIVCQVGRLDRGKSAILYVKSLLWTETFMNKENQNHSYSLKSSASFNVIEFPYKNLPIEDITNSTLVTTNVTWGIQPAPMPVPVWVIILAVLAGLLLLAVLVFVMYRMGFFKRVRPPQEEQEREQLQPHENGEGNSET
T5 sequence (P06756 31-992, one chain of several): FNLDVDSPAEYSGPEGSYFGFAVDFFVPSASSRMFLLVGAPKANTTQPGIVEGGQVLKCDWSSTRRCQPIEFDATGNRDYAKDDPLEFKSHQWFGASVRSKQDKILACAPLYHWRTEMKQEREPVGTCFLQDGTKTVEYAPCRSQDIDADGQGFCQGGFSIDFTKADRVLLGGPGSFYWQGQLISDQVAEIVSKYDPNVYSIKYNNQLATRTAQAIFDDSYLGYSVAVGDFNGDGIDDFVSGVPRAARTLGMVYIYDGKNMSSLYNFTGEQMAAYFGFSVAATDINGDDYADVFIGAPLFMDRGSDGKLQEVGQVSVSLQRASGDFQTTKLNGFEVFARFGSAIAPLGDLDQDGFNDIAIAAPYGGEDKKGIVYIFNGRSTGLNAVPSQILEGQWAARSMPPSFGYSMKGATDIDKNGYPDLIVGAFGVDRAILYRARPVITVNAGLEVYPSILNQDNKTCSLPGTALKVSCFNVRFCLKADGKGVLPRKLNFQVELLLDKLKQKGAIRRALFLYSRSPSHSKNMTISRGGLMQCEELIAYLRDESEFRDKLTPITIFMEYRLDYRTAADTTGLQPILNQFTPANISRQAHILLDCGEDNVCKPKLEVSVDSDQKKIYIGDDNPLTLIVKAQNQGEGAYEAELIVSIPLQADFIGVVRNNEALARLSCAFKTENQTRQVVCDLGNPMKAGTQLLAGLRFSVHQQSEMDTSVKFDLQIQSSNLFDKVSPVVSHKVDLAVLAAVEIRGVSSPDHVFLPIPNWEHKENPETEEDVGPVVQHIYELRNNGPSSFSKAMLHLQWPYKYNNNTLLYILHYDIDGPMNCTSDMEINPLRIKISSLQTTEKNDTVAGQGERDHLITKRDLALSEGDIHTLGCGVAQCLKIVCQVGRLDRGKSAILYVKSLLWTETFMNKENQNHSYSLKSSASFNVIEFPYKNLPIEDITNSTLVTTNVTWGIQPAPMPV
T3 sequence (A0A2K5WCD3 entry or part of it limits assumed): as the sequence (P06756 31-1048, one chain of several) above, with M118L, L264I, E270D, R562W, S609F, N660S, V753I, T840A counted along it

B1: sc 320 (antibody, V domains shown)
VH: EVQLVESGGGLVKPGGSLRLSCAASGYTFTNYIMHWVRQAPGKGLEWVSSISISSSYIYYADSVKGRFTISRDNAKNSLYLQMNSLRAEDTAVYYCARDPVPLERRDYYYGMDVWGQGTTVTVSS
VL: QSVLTQPPSMSAAPGQKVTISCSGSSSNIGNNYVSWYQQLPGTAPKLLIYDNNKRPSGIPDRFSGSKSGTSATLGITGLQTGDEADYYCGTWDSSLSAGVFGGGTKLTVL
notes: Fully human XenoMouse mAb
For B1, in experiment [1], the “Mac AVB6 % Cells Shifted” value was 19% and the “Mac AVB6 GeoMean” value is 33.5.

B2: sc 58 (antibody, V domains shown)
VH: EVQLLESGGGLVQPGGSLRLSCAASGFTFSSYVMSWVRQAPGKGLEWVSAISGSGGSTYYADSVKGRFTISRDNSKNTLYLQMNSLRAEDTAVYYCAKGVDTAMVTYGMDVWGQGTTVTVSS
VL: SYELTQPPSVSVSPGQTARITCSGDALPKKYAYWYQQKSGQAPVLVIYDDSKRPSGIPERFSGSSSGTMATLTISGAQVEDEADYYCYSTDSSGNHRVFGGGTKLTVL
notes: Fully human XenoMouse mAb; also called sc 058
For the molecule B2, in experiment [1], the “Mac AVB6 % Cells Shifted” value amounted to 25% and the “Mac AVB6 GeoMean” value stood at 22.8.

B3: sc 133 (antibody, V domains shown)
VH: QVQLVQSGAEVKKPGASVKVSCKASGYTFTGYYMHWVRQAPGQGLEWMGWINPKSGDTNYAQKFQGRVTLTRDTSTSTAYMELSRLRSDDTAVYYCARRLDVWGQGTTVTVSS
VL: QSVLTQPPSVSAAPGQKVTISCSGSSSNIGNNYVSWYQQLPGTAPKLLIYDNNKRPSGIPDRFSGSKSGTSATLGITGLQTGDEADYYCGTWNSSLSAGYVFGTGTKVTV
notes: Fully human XenoMouse mAb
As for B3, the “percent of cells shifted” value is 10% in [2], 28% in experiment [3] and 5% in experiment [4]. For the same molecule, the “Mac AVB6 % Cells Shifted” value in experiment [1] is 32%. In [1], the “Mac AVB6 GeoMean” value came out at 35.2.

B4: sc 161 (antibody, V domains shown)
VH: EVQLVQSGAEVKKPGESLKISCKGSGYSFTSYWIGWVRQMPGKGLEWMGIIYPGDSDTRYSPSFQGQVTISADKSISTAYLQWSSLKASDTAMYYCARHGIAAAGFYYYYMDVWGQGTTVTVSS
VL: EIVLTQSPDTLSLSPGERASLSCRASQNVNRNYLVWYQQKPGQAPRLLIYGTSNRATGIPDRFSGSGSGTDFTLTISRLEPEDFAVYYCQQCGSLPFTFGPGTKVDIKR
notes: Fully human XenoMouse mAb
Turning to B4, in experiment [1], the “Mac AVB6 % Cells Shifted” value is 14% and the “Mac AVB6 GeoMean” value was determined as 33.

B5: sc 49 (antibody, V domains shown)
VH: QVQLQESGPGLVKPSQTLSLTCTVAGGSIRSGDYYWSWIRQHPGKGLEWIGNIYYSGSTYYNPSLKSRITISVATSRNQFSLKLTSVTAADTAVYYCARGGAITIFGVFDYWGQGTLVTVSS
VL: not shown
notes: Fully human XenoMouse mAb; also called sc 049
Take B5: in experiment [1], the “Mac AVB6 % Cells Shifted” value was found to be 23% and the “Mac AVB6 GeoMean” value was 30.2.

B6: sc 264 (antibody, V domains shown)
VH: QVQLQESGPGLVKPSQTLSLTCTVSGGSISSGGYYWSWIRQHPGKGLEWIGYIYYSGRTYNNPSLKSRVTISVDTSKNQFSLKLSSVTAADTAVYYCARVATGRGDYHFYAMDVWGQGTTVTVSS
VL: SYELTQPSSVSVSPGQTARITCSGDVLAKKSARWFHQKPGQAPVLVIYKDSERPSGIPERFSGSSSGTTVTLTISGAQVEDEAAYYCYSAADNNLVFGGGTKLTVL
notes: Fully human XenoMouse mAb; Has RGD in heavy chain CDR3
Take B6: in experiment [1], the “Mac AVB6 % Cells Shifted” value came out at 55% and the “Mac AVB6 GeoMean” value stood at 66.4.

B7: sc 264 RAD (antibody, V domains shown)
VH: QVQLQESGPGLVKPSQTLSLTCTVSGGSISSGGYYWSWIRQHPGKGLEWIGYIYYSGRTYNNPSLKSRVTISVDTSKNQFSLKLSSVTAADTAVYYCARVATGRADYHFYAMDVWGQGTTVTVSS
VL: SYELTQPSSVSVSPGQTARITCSGDVLAKKSARWFHQKPGQAPVLVIYKDSERPSGIPERFSGSSSGTTVTLTISGAQVEDEAAYYCYSAADNNLVFGGGTKLTVL
As to B7, the “EC50 (read off the curve)” value in experiment [5] was approximately 0.08 nM. In addition, the “Geometric Mean Shift” value in experiment [6] worked out at 4890 arbitrary units; in [7], 6840 arbitrary units; in experiment [8], 7240 arbitrary units.

B8: sc 277 (antibody, V domains shown)
VH: EVQLVQSGAEVKKPGESLKISCKGSGYSFPSYWIGWVRQMPGKGLEWMGIIYPGDSDTRYSPSFQGQVTISADKSISTAYLQWSSLKASDTAMYYCARHPMEDGMDVWGQGTTVTVSS
VL: SYELTQPPSVSVSPGQTARITCSGDALPKKYAFWYQQKSGQAPVLVIYDDNKRPSGIPERFSGSSSGTMATLTITGAQVEDEADYYCYSTDSSGHHVFGGGTKLTVL
notes: Fully human XenoMouse mAb
With B8, in [1], the “Mac AVB6 % Cells Shifted” value came to 35% and the “Mac AVB6 GeoMean” value was 33.4.

B9: sc 97 (antibody, V domains shown)
VH: EVQLVQSGAEVKKPGESLKISCKGSGYSFTSYWIGWVRQMPGKGLEWMGIIYPGDSDTRYSPSFQGQVILSADKSISTAYLQWSSLKASDTAMYYCARHDESSGYYYVFDIWGQGTMVTVSS
VL: SYELTQPPSVSVSPGQTARITCSGDALPKKYAYWYQQKSGQAPVLVIYEDIKRPSGIPERFSGSSSGTMATLTISGAQVEDEADYYCYSTDSSGNHWVFFGGGTKLTVL
notes: Fully human XenoMouse mAb; also called sc 097
Turning to B9, in [1], the “Mac AVB6 % Cells Shifted” value was 35% and the “Mac AVB6 GeoMean” value came out at 37.

B10: sc 254 (antibody, V domains shown)
VH: QVQLQESGPGLVKPSQTLSLTCTVSGGSISSGGYYWSWIRQHPGKGLEWIGYIYYSGSTYYNPSLKSRVTISVDTSKNQFSLKLSSVTAADTAMYYCARYRGPAAGRGDFYYFGMDVWGQGTTVTVSS
VL: DIVMTQTPLSLSVTPGQPASIFCKSSQSLLNSDGKTYLCWYLQKPGQPPQLLIYEVSNRFSGVPDRFSGSGSGTDFTLKISRVEAEDVGVYYCMQGIQLPWAFFGQGTKVEIK
notes: Fully human XenoMouse mAb
As for B10, the “Mac AVB6 GeoMean” value in experiment [1] came to 78.5. The “IC50 (read off the curve)” value in experiment [9] was approximately 0.3 µg/mL.

B11: sc 188 (antibody, V domains shown)
VH: QVQLQESGPGLVKPSQTLSLTCTVSGGSISSGVYYWTWIRQHPGNGLEWIGYIYYSGSTSYNPSLKSRVTISVDTSKKQFSLNLTSVTAADTAVYYCAREGPLRGDYYYGLDVWGQGTTVTVSS
VL: EIVLTQSPGTLSLSPGERATLSCRAGQTISSRYLAWYQQKPGQAPRPLIYGASSRATGIPDRFSGSGSGTDFTLTISRLEPEDFAVYYCQQYGSSPRTFGQGTKVEIK
notes: Fully human XenoMouse mAb; Has a glycosylation site (NLT) in heavy chain FR3
As for B11, the “EC50 (read off the curve)” value in [10] is approximately 0.06 nM. In addition, the “Mac AVB6 GeoMean” value in experiment [1] turned out to be 23.9. The “IC50 (read off the curve)” value in [9] is approximately 0.2 µg/mL.

B12: sc 188 SDM (antibody, V domains shown)
VH: QVQLQESGPGLVKPSQTLSLTCTVSGGSISSGVYYWTWIRQHPGNGLEWIGYIYYSGSTSYNPSLKSRVTISVDTSKKQFSLKLTSVTAADTAVYYCAREGPLRGDYYYGLDVWGQGTTVTVSS
VL: EIVLTQSPGTLSLSPGERATLSCRAGQTISSRYLAWYQQKPGQAPRPLIYGASSRATGIPDRFSGSGSGTDFTLTISRLEPEDFAVYYCQQYGSSPRTFGQGTKVEIK
For B12, the “Geometric Mean Shift” value in experiment [6] was found to be 4530 arbitrary units; in experiment [7], 6820 arbitrary units; in [8], 6760 arbitrary units.

B13: sc 374 (antibody, V domains shown)
VH: QVQLVESGGGVVQPGRSLRLSCAASGFTFSSYGMHWVRQAPGKGLEWVAVIWYDGSNKYYADSVKGRFTISRDNSKNTLYLQMNSLRAEDTAVYYCARTEGIAARLYYYYGMDVWGQGTTVTVSS
VL: not shown
notes: Fully human XenoMouse mAb
In the case of B13, the “Mac AVB6 GeoMean” value in experiment [1] came out at 61.8.
